Data on one molecule can be found in patent US20220177578A1 (MAGENTA THERAPEUTICS, published 2022).

The target of the test is T1, Human CD117 antigen (recombinant CD117 ectodomain) (human, UniProt P10721 26-520).
T1 construct: also called c-kit; ectodomain of human CD117
The experiment in a line: chemical cross-linking, High-Mass MALDI MS and nLC-Orbitrap MS of the CD117/Ab67 complex. The method, then: A sample of Ab67 was diluted in distilled water to a concentration of 2.7 mg/mL. 1 μL of the diluted Ab67 was then mixed with 1 μL of a matrix composed of a re-crystallized sinapinic acid matrix (10 mg/mL) in acetonitrile/water (1:1, v/v), TFA (0.1% (K200 MALDI Kit). The mixture was submitted to cross-linking using CovalX's K200 MALDI MS analysis kit. The protein solutions were mixed with 1 μl of K200 Stabilizer reagent (2 mg/ml) and incubated at room temperature. After the incubation time (180 minutes) the samples were prepared for MALDI analysis. The samples were analyzed by High-Mass MALDI MS immediately after crystallization at room temperature.
After digestion, formic acid 1% final was added to the solution. After proteolysis, 10 ul of the peptide solution generated by proteolysis were loaded onto a nano-liquid chromatography system (Ultimate 3000-RSLC). The cross-linked peptides were analyzed using Xquest version 2.0 and Stavrox 3.6. software. nLC-LTQ-Orbitrap MS/MS analysis using a nLC Ultimate 3000-RSLC system in line with a LTQ-Orbitrap mass spectrometer (Thermo Scientific) was performed.

T1 sequence (P10721 other isoform, or with tags, fused parts or gaps): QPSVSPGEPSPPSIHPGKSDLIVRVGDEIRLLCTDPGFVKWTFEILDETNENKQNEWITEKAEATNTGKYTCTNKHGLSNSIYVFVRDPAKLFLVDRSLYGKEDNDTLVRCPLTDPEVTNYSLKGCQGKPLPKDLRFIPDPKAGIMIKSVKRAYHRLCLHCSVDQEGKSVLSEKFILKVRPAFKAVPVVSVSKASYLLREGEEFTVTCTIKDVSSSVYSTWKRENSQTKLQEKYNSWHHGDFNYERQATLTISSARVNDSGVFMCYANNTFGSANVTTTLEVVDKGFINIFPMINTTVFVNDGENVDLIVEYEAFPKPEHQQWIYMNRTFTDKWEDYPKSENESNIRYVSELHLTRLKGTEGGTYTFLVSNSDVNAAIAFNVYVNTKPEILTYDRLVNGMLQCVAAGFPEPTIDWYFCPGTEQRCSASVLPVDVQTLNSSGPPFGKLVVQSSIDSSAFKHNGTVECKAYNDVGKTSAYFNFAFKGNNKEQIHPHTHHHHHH

B1: Antibody 67 (Ab67), human anti-CD117 antibody (antibody, V domains shown)
VH: EVQLVESGGGLVQPGGSLRLSCAASGFTFSDADMDWVRQAPGKGLEWVGRTRNKAGSYTTEYAASVKGRFTISRDDSKNSLYLQMNSLKTEDTAVYYCAREPKYWIDFDLWGRGTLVTVSS
VL: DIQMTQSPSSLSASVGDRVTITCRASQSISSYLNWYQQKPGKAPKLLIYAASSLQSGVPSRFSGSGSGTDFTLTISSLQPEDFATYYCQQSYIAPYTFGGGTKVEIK
notes: also called Antibody HC-67/LC-67
Regarding B1, the binding result is reported as “binds”.
